{"source": "paper PMC12462500", "target": "SNAP-tagged human melanocortin-4 receptor (SNAP-MC4R) (human) (UniProt P32245)", "sequence (P32245 whole entry)": "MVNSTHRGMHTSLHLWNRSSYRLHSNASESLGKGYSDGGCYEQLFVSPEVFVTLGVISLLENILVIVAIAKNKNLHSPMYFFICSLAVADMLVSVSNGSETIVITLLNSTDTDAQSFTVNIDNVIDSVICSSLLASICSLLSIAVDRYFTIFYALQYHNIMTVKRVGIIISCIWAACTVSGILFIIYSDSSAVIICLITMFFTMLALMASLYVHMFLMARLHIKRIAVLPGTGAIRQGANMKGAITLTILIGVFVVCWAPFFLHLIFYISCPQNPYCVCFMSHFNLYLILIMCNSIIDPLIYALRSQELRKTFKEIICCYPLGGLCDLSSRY"}
{"substance": "α-MSH (peptide)", "values": [{"measurement": "EC50 of α-MSH-stimulated cAMP production (Epac-S^H187 FRET biosensor, HEK293), MC4R + mock", "value": 4.5, "unit": "nM"}, {"measurement": "EC50 of α-MSH-stimulated cAMP production (Epac-S^H187 FRET biosensor, HEK293), MC4R co-expressed with MRAP2 (1 + 1 or 1 + 4)", "value": 1.3, "unit": "nM"}]}
